Literature values in publication PMC2883863.

Tests used:
[1] = target: Cys32 (UniProt position 33, FWAEWCGPCKM); conditions: not stated (quoted literature value for E. coli thioredoxin)
[2] = target: Cys30 (UniProt position 49, FFSFFCPHCYQ); conditions: not stated (quoted literature value for E. coli DsbA)

Substance	pKa [1]	pKa [2]
Thioredoxin 1 (Escherichia coli)	7.5	–
Thiol:disulfide interchange protein DsbA (Escherichia coli)	–	3.5
